Bridge positions count the residues as written; N and C are the ends. Ends that are not written are not given here.
Molecular target: T1, human IL-2Rα subunit (human, UniProt P01589 22-213, limits assumed)
T1 construct: also called CD25
T1 sequence (looked up): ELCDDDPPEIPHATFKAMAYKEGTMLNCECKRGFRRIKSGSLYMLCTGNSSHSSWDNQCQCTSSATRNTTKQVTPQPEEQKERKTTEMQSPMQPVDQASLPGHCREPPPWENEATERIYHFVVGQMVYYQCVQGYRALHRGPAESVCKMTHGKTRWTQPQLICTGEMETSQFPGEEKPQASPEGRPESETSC

Binder	IC50
YCHDFKGTVGTLCI (disulfide 2-13 (inferred)) [SEQ ID NO 233]	< 100 µM
HGCTLTKPGAEWVCSF [SEQ ID NO 218]	< 100 µM
TDCQETWPGDRPWCHI [SEQ ID NO 222]	< 100 µM
VCFNFRGTVGRHCW [SEQ ID NO 255]	< 100 µM
RDCFILEPGTSVYCDL [SEQ ID NO 221]	< 100 µM
AVSCNSWRCIPW [SEQ ID NO 251]	< 100 µM
DCLDLRGTVGMVCQ [SEQ ID NO 227]	< 100 µM
VKCYRNSPGVEAYCVG (disulfide 3-14 (inferred)) [SEQ ID NO 224]	< 100 µM
VVLCTPKGCRSA [SEQ ID NO 22]	< 100 µM
FVHCTLLGCWSG [SEQ ID NO 24]	< 100 µM
WDQFQLGWEAGVAA [SEQ ID NO 239]	< 100 µM
PCQRLAEYYSQQCL (disulfide 2-13 (inferred)) [SEQ ID NO 228]	< 100 µM
RCLDLGGSVGLVCF [SEQ ID NO 254]	< 100 µM
LVFCGKNGCHSG [SEQ ID NO 21]	< 100 µM
GCSLMWQDGWWVCI [SEQ ID NO 246]	< 100 µM
SCMDLKGSVGWVCD [SEQ ID NO 229]	< 100 µM
GGCSLVWADSWVCIF [SEQ ID NO 245]	< 100 µM
FLPWPVYFSQVLGGG [SEQ ID NO 240]	< 100 µM
ATCHLLAPGVDNTCIF [SEQ ID NO 217]	< 100 µM
VKCFMSTPGQIAYCTT [SEQ ID NO 223]	< 100 µM
HVICSVNGGCRG [SEQ ID NO 242]	< 100 µM
WCWEPHDQYYVRCP [SEQ ID NO 232]	< 100 µM
RRFCLRSEPTACWIV [SEQ ID NO 59]	< 100 µM
RRFCLRSEPTACWDV [SEQ ID NO 62]	< 100 µM
MRFCLRSEPTACWTV [SEQ ID NO 61]	< 100 µM
IRFCLRSEPTACWIV [SEQ ID NO 243]	< 100 µM

Binder	IC50
KRFCLRSEPTACWTV [SEQ ID NO 64]	< 100 µM
RRFCLRSDPTACWIV [SEQ ID NO 63]	< 100 µM
IRFCLRSEPTACWIV [SEQ ID NO 54]	< 100 µM
RRFCLRSEPTACWYV [SEQ ID NO 68]	< 100 µM
RRFCLRSEPTACWTV (disulfide 4-12 (inferred)) [SEQ ID NO 66]	< 100 µM
RRFCLRSEPMACWTV (disulfide 4-12 (inferred)) [SEQ ID NO 65]	< 100 µM
IRCRYEKQSGICLF [SEQ ID NO 244]	< 100 µM
FVHCSLMGCWCG [SEQ ID NO 253]	< 100 µM
GCQLVWQDDSYMCFY [SEQ ID NO 234]	< 100 µM
TCRLKRSGPNSWECI [SEQ ID NO 249]	< 100 µM
QLCPWSDPGSWGPCPL [SEQ ID NO 219]	< 100 µM
EWECRFLPGRRGCSLF [SEQ ID NO 247]	< 100 µM
KGCTLQNPGSGWVCLF [SEQ ID NO 248]	< 100 µM
WCVGQPLYRLGSCK (disulfide 2-13 (inferred)) [SEQ ID NO 238]	< 100 µM
TCESLARMYNENCI [SEQ ID NO 231]	< 100 µM
VRCRQNEPGGAYWCSS [SEQ ID NO 256]	< 100 µM
VYCRREKPGGEMHCRS [SEQ ID NO 213]	< 100 µM
AVCCDGNSCRRC [SEQ ID NO 252]	< 100 µM
WCIGQPLFRQGSCK [SEQ ID NO 250]	< 100 µM
YVMCSAFGCKSI [SEQ ID NO 241]	< 100 µM
RDCAGMEPGTSVFCDN [SEQ ID NO 220]	< 100 µM
LDLTYDELLACT [SEQ ID NO 2]	< 100 µM
TCESLAKMYEVECN [SEQ ID NO 230]	< 100 µM
WCIGQPLFRQGSCK [SEQ ID NO 237]	< 100 µM
YVMCSAFGCKSI [SEQ ID NO 23]	< 100 µM
CVLREGAEGWECVWR [SEQ ID NO 257]	< 100 µM

Reference: patent US20200399314A1 (MEDIKINE, published 2020)
